# IntAct's records for PubMed 28176834
# B1: DNA topoisomerase 3-beta-1 (Homo sapiens), O95985 (parent)
# chain: MKTVLMVAEKPSLAQSIAKILSRGSLSSHKGLNGACSVHEYTGTFAGQPVRFKMTSVCGHVMTLDFLGKYNKWDKVDPAELFSQAPTEKKEANPKLNMVKFLQVEGRGCDYIVLWLDCDKEGENICFEVLDAVLPVMNKAHGGEKTVFRARFSSITDTDICNAMACLGEPDHNEALSVDARQELDLRIGCAFTRFQTKYFQGKYGDLDSSLISFGPCQTPTLGFCVERHDKIQSFKPETYWVLQAKVNTDKDRSLLLDWDRVRVFDREIAQMFLNMTKLEKEAQVEATSRKEKAKQRPLALNTVEMLRVASSSLGMGPQHAMQTAERLYTQGYISYPRTETTHYPENFDLKGSLRQQANHPYWADTVKRLLAEGINRPRKGHDAGDHPPITPMKSATEAELGGDAWRLYEYITRHFIATVSHDCKYLQSTISFRIGPELFTCSGKTVLSPGFTEVMPWQSVPLEESLPTCQRGDAFPVGEVKMLEKQTNPPDYLTEAELITLMEKHGIGTDASIPVHINNICQRNYVTVESGRRLKPTNLGIVLVHGYYKIDAELVLPTIRSAVEKQLNLIAQGKADYRQVLGHTLDVFKRKFHYFVDSIAGMDELMEVSFSPLAATGKPLSRCGKCHRFMKYIQAKPSRLHCSHCDETYTLPQNGTIKLYKELRCPLDDFELVLWSSGSRGKSYPLCPYCYNHPPFRDMKKGMGCNECTHPSCQHSLSMLGIGQCVECESGVLVLDPTSGPKWKVACNKCNVVAHCFENAHRVRVSADTCSVCEAALLDVDFNKAKSPLPGDETQHMGCVFCDPVFQELVELKHAASCHPMHRGGPGRRQGRGRGRARRPPGKPNPRRPKDKMSALAAYFV
# B2: Tudor domain-containing protein 3 (Homo sapiens), Q9H7E2-3 (parent)
# chain: MAQVAGAALSQAGWYLSDEGIEACTSSPDKVNVNDIILIALNTDLRTIGKKFLPSDINSGKVEKLEGPCVLQIQKIRNVAAPKDNEESQAAPRMLRLQMTDGHISCTAVEFSYMSKISLNTPPGTKVKLSGIVDIKNGFLLLNDSNTTVLGGEVEHLIEKWELQRSLSKHNRSNIGTEGGPPPFVPFGQKCVSHVQVDSRELDRRKTLQVTMPVKPTNDNDEFEKQRTAAIAEVAKSKETKTFGGGGGGARSNLNMNAAGNRNREVLQKEKSTKSEGKHEGVYRELVDEKALKHITEMGFSKEASRQALMDNGNNLEAALNVLLTSNKQKPVMGPPLRGRGKGRGRIRSEDEEDLGNARPSAPSTLFDFLESKMGTLNVEEPKSQPQQLHQGQYRSSNTEQNGVKDNNHLRHPPRNDTRQPRNEKPPRFQRDSQNSKSVLEGSGLPRNRGSERPSTSSVSEVWAEDRIKCDRPYSRYDRTKDTSYPLGSQHSDGAFKKRDNSMQSRSGKGPSFAEAKENPLPQGSVDYNNQKRGKRESQTSIPDYFYDRKSQTINNEAFSGIKIEKHFNVNTDYQNPVRSNSFIGVPNGEVEMPLKGRRIGPIKPAGPVTAVPCDDKIFYNSGPKRRSGPIKPEKILESSIPMEYAKMWKPGDECFALYWEDNKFYRAEVEALHSSGMTAVVKFIDYGNYEEVLLSNIKPIQTEAWEEEGTYDQTLEFRRGGDGQPRRSTRPTQQFYQPPRARN
# partner: B1 chain
# Variants of: B1
# Settings: with TDRD3, Q9H7E2-3
row,effect of a mutation on the interaction,Variant
1,with no effect,D266A

# Variants of: B2
# Settings: with top3b_human TOP3B, O95985
row,effect of a mutation on the interaction,Variant
1,decreasing interaction strength,R96M;V109M;F111Y;F139V
2,with no effect,R96M;V109M;F139V
3,decreasing interaction strength,V79S;A80S;A81S;P82S
4,with no effect,V79S
5,with no effect,P82S
6,decreasing interaction strength,V79S;P82S
7,with no effect,F111S
8,with no effect,F111Y
9,with no effect,R96M;V109M;F111Y
10,disrupting interaction strength,P92S;M94S
11,disrupting interaction strength,V109S
12,with no effect,V109M
13,with no effect,L141S
14,with no effect,R96M;F139V
15,decreasing interaction strength,F139S
16,with no effect,F139V
17,with no effect,R96M
18,with no effect,R96A
19,with no effect,V109M;F111Y;F139V
20,with no effect,R96M;V109M
21,disrupting interaction strength,V109S;F111S
22,with no effect,A80S;A81Q;A90K;A91P;P92S
23,with no effect,A80S;A81S
24,decreasing interaction strength,P92S
25,disrupting interaction strength,F139S;L141S
26,disrupting interaction strength,M94S
27,with no effect,R96M;F111Y
28,with no effect,R96M;F111Y;F139V
